Experimental data published in patent publication US20150175665A1 (IPSEN PHARMA S A S, published 2015).

T1: human recombinant GIP receptor (human, UniProt P48546 22-466)
T1 construct: whole, on cells; Assayed as washed membranes of CHO-K1 cells expressing the receptor; also called hGIP receptor
T1 sequence (looked up): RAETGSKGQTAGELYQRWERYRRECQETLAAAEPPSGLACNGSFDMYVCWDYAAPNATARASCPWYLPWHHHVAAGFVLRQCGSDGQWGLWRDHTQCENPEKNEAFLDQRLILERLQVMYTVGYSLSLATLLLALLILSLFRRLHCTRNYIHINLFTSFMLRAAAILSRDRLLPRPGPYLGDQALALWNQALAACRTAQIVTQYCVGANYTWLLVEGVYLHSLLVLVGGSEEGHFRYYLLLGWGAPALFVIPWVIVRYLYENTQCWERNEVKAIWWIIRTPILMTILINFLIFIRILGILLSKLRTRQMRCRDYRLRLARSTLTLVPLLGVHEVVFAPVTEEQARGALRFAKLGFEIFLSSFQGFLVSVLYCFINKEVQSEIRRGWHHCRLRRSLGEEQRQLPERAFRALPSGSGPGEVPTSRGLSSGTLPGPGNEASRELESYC

B1: (4F-Phe^1, Aib^2, A5c^11, 41)hGIP(1-42)-OH (peptide)
peptide: FXEGTFISDYXIAMDKIHQQDFVNWLLAQKGKKNDWKHNIXQ
modifications: 4F-Phe at 1; Aib at 2; A5c at 11 and 41
B2: (His^1, Aib^2, A5c^11, Nle^14)hGIP(1-42)-OH (peptide)
peptide: HXEGTFISDYXIAXDKIHQQDFVNWLLAQKGKKNDWKHNITQ
modifications: Aib at 2; A5c at 11; Nle at 14
B3: (3I-Tyr^1, Aib^2, A5c^11, Nle^14)hGIP(1-42)-OH (peptide)
peptide: YXEGTFISDYXIAXDKIHQQDFVNWLLAQKGKKNDWKHNITQ
modifications: 3I-Tyr at 1; Aib at 2; A5c at 11; Nle at 14
B4: (4CN-Phe^1, Aib^2, A5c^11, 41)hGIP(1-42)-OH (peptide)
peptide: FXEGTFISDYXIAMDKIHQQDFVNWLLAQKGKKNDWKHNIXQ
modifications: 4CN-Phe at 1; Aib at 2; A5c at 11 and 41
B5: (3F-Phe^1, Aib^2, A5c^11, 41)hGIP(1-42)-OH (peptide)
peptide: FXEGTFISDYXIAMDKIHQQDFVNWLLAQKGKKNDWKHNIXQ
modifications: 3F-Phe at 1; Aib at 2; A5c at 11 and 41
B6: (3Cl-Tyr^1, Aib^2, A5c^11, Nle^14)hGIP(1-42)-OH (peptide)
peptide: YXEGTFISDYXIAXDKIHQQDFVNWLLAQKGKKNDWKHNITQ
modifications: 3Cl-Tyr at 1; Aib at 2; A5c at 11; Nle at 14
B7: (4Me-Phe^1, Aib^2, A5c^11, His^43)hGIP(1-43)-OH (peptide)
peptide: FXEGTFISDYXIAMDKIHQQDFVNWLLAQKGKKNDWKHNITQH
modifications: 4Me-Phe at 1; Aib at 2; A5c at 11
B8: (3Br-Tyr^1, Aib^2, A5c^11, Nle^14, His^43)hGIP(1-43)-OH (peptide)
peptide: YXEGTFISDYXIAXDKIHQQDFVNWLLAQKGKKNDWKHNITQH
modifications: 3Br-Tyr at 1; Aib at 2; A5c at 11; Nle at 14
B9: (2,6Me-Tyr^1, Aib^2, A5c^11, Nle^14, His^43)hGIP(1-43)-OH (peptide)
peptide: YXEGTFISDYXIAXDKIHQQDFVNWLLAQKGKKNDWKHNITQH
modifications: 2,6Me-Tyr at 1; Aib at 2; A5c at 11; Nle at 14
B10: (3Cl-Tyr^1, Aib^2, A5c^11, 14, His^43)hGIP(1-43)-OH (peptide)
peptide: YXEGTFISDYXIAXDKIHQQDFVNWLLAQKGKKNDWKHNITQH
modifications: 3Cl-Tyr at 1; Aib at 2; A5c at 11 and 14
B11: (3Cl-Tyr^1, D-Ala^2, A5c^11, Nle^14, His^43)hGIP(1-43)-OH (peptide)
peptide: YAEGTFISDYXIAXDKIHQQDFVNWLLAQKGKKNDWKHNITQH
modifications: 3Cl-Tyr at 1; D-Ala at 2; A5c at 11; Nle at 14
notes: X stands for a non-natural residue
B12: (3Cl-Tyr^1, Aib^2, A5c^11, Nle^14, His^43)hGIP(1-43)-OH (peptide)
peptide: YXEGTFISDYXIAXDKIHQQDFVNWLLAQKGKKNDWKHNITQH
modifications: 3Cl-Tyr at 1; Aib at 2; A5c at 11; Nle at 14
B13: (2,6Me-Tyr^1, Aib^2, A5c^11, 14, His^43)hGIP(1-43)-OH (peptide)
peptide: YXEGTFISDYXIAXDKIHQQDFVNWLLAQKGKKNDWKHNITQH
modifications: 2,6Me-Tyr at 1; Aib at 2; A5c at 11 and 14
B14: (3Cl-Tyr^1, D-Ala^2, A5c^11, 14, His^43)hGIP(1-43)-OH (peptide)
peptide: YAEGTFISDYXIAXDKIHQQDFVNWLLAQKGKKNDWKHNITQH
modifications: 3Cl-Tyr at 1; D-Ala at 2; A5c at 11 and 14
notes: as for B11
B15: [3Cl-Tyr^1, D-Ala^2, A5c^11, 14, Lys^43(N-C(O)-(CH2)10-CH3)]hGIP(1-43)-OH (peptide)
peptide: YAEGTFISDYXIAXDKIHQQDFVNWLLAQKGKKNDWKHNITQK
modifications: 3Cl-Tyr at 1; D-Ala at 2; A5c at 11 and 14; Lys(N-C(O)-(CH2)10-CH3) at 43
notes: as for B11
B16: [3Cl-Tyr^1, Aib^2, A5c^11, Nle^14, Cys^43(succinimide-N-(CH2)2-C(O)NH-(CH2)3-O-CH2-CH(20K PEG)-CH2-20K PEG)]hGIP(1-43)-NH2 (peptide)
peptide: YXEGTFISDYXIAXDKIHQQDFVNWLLAQKGKKNDWKHNITQC
modifications: 3Cl-Tyr at 1; Aib at 2; A5c at 11; Nle at 14; Cys(succinimide-N-(CH2)2-C(O)NH-(CH2)3-O-CH2-CH(20K PEG)-CH2-20K PEG) at 43; C-terminal amide
notes: Branched PEGylated analogue
B17: [3Cl-Tyr^1, D-Ala^2, A5c^11, Nle^14, Lys^43(N-C(O)-(CH2)10-CH3)]hGIP(1-43)-OH (peptide)
peptide: YAEGTFISDYXIAXDKIHQQDFVNWLLAQKGKKNDWKHNITQK
modifications: 3Cl-Tyr at 1; D-Ala at 2; A5c at 11; Nle at 14; Lys(N-C(O)-(CH2)10-CH3) at 43
notes: as for B11
B18: (3Cl-Tyr^1, Aib^2, A5c^11, Nle^14, Cys^43)hGIP(1-43)-OH (peptide)
peptide: YXEGTFISDYXIAXDKIHQQDFVNWLLAQKGKKNDWKHNITQC
modifications: 3Cl-Tyr at 1; Aib at 2; A5c at 11; Nle at 14
B19: [3Cl-Tyr^1, D-Ala^2, A5c^11, 14, Cys^43(succinimide)]hGIP(1-43)-OH (peptide)
peptide: YAEGTFISDYXIAXDKIHQQDFVNWLLAQKGKKNDWKHNITQC
modifications: 3Cl-Tyr at 1; D-Ala at 2; A5c at 11 and 14; Cys(succinimide) at 43
notes: as for B11
B20: [3Cl-Tyr^1, D-Ala^2, A5c^11, Nle^14, Cys^43(succinimide)]hGIP(1-43)-OH (peptide)
peptide: YAEGTFISDYXIAXDKIHQQDFVNWLLAQKGKKNDWKHNITQC
modifications: 3Cl-Tyr at 1; D-Ala at 2; A5c at 11; Nle at 14; Cys(succinimide) at 43
notes: as for B11
B21: (2,6Me-Tyr^1, Aib^2, A5c^11, His^43)hGIP(1-43)-OH (peptide)
peptide: YXEGTFISDYXIAMDKIHQQDFVNWLLAQKGKKNDWKHNITQH
modifications: 2,6Me-Tyr at 1; Aib at 2; A5c at 11
B22: (4Hppa^1, Aib^2, A5c^7)hGIP(1-30)-NH2 (peptide)
peptide: XXEGTFXSDYSIAMDKIHQQDFVNWLLAQK
modifications: 4Hppa at 1; Aib at 2; A5c at 7; C-terminal amide
B23: (4Hppa^1, Aib^2, 11, Nle^14)hGIP(1-30)-NH2 (peptide)
peptide: XXEGTFISDYXIAXDKIHQQDFVNWLLAQK
modifications: 4Hppa at 1; Aib at 2 and 11; Nle at 14; C-terminal amide
B24: (3F-Tyr^1, Gly^2, A5c^11, 40)hGIP(1-42)-OH (peptide)
peptide: YGEGTFISDYXIAMDKIHQQDFVNWLLAQKGKKNDWKHNXTQ
modifications: 3F-Tyr at 1; A5c at 11 and 40
B25: [Tyr^1-Ψ-(CH2-NH)Gly^2, A5c^11, 41]hGIP(1-42)-OH (peptide)
peptide: YGEGTFISDYXIAMDKIHQQDFVNWLLAQKGKKNDWKHNIXQ
modifications: pseudopeptide bond Ψ-(CH2-NH) between Tyr 1 and Gly 2; A5c at 11 and 41

What follows are binders tested against T1, human recombinant GIP receptor (assay: displacement of [125I]GIP, membranes of CHO-K1 cells expressing human GIP receptor).
Experimental: Membranes for in vitro receptor binding assays were prepared by homogenizing the CHO—K1 clonal cells expressing the human recombinant GIP receptor, with a Brinkman Polytron (setting 6, 15 sec), in ice-cold 50 mM Tris-HCl and then subjected to two centrifugations at 39,000 g for 10 minutes, with a resuspension in fresh buffer in between. For the assay, aliquots of the washed membrane preparations were incubated (100 minutes at 25° C. with 0.05 nM [¹²⁵1]GIP (2200 Ci/mmol) in 50 mM Tris-HCl, 0.1 mg/ml bacitracin, and 0.1% BSA. The final assay volume was 0.5 ml. The incubations were terminated by rapid filtration through GF/C filters (pre-soaked in 0.5% polyethylenimine) using a Brandel filtration manifold. Each tube and filter were then washed three times with 5-ml aliquots of ice-cold buffer.
Specific binding was defined as the total radioligand bound minus that bound in the presence of 1000 nM GIP.
B1 showed a Ki of 5.82 nM.
Binder B2 has a Ki of 3.18 nM.
Binder B3 has a Ki of 5.03 nM.
B4 gave a Ki of 14.4 nM.
In the case of B5, the Ki is reported as 5.43 nM.
In the case of B6, the Ki is reported as 0.42 nM.
For B7, the Ki was 9.13 nM.
B8 showed a Ki of 1.09 nM.
Binder B9 has a Ki of 39 nM.
Binder B10 has a Ki of 0.78 nM.
B11 was tested, and the Ki was 8.89 nM.
In the case of B12, the Ki is reported as 0.76 nM.
Work on B13 yielded a Ki of 50.2 nM.
Binder B14 has a Ki of 5.06 nM.
B15 gave a Ki of 9.06 nM.
In the case of B16, the Ki is reported as 42.4 nM.
For B17, the Ki was 6.64 nM.
B18 gave a Ki of 0.83 nM.
B19 showed a Ki of 1.41 nM.
B20 gave a Ki of 9.13 nM.
With B21 the Ki was 35 nM.
B22 was tested, and the Ki was 5 nM.
B23 showed a Ki of 20.3 nM.
B24 showed a Ki of 10.4 nM.
With B25 the Ki was 49 nM.
